According to US20140072613A1, “Compositions and Methods for Treating Cutaneous Scarring” (priority 2012, published 2014):

What was measured:
Experiment in all cases: biochemical
Type in all cases: biochemical
266 human kinases [1] = target: 266 human kinases (Homo sapiens, UniProt P53667); conditions: LIMK1(h); 100 μM
Outline: (§1)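 Radiometric filter-binding format: a positively charged substrate takes up radiolabelled phosphate from ATP unless the kinase is inhibited, then is captured on a negatively charged filter membrane. Counts from scintillation are expressed relative to a 100% activity control.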

266 human kinases [2] = target: 266 human kinases (Homo sapiens, UniProt Q86Y07); conditions: VRK2(h); 100 μM
Outline: as §1

266 human kinases [3] = target: 266 human kinases (Homo sapiens, UniProt P16234, V561D); conditions: PDGFRα(V561D)(h); 100 μM
Outline: as §1

266 human kinases [4] = target: 266 human kinases (Homo sapiens, UniProt P00519); conditions: Abl(h); 100 μM
Outline: as §1

266 human kinases [5] = target: 266 human kinases (Homo sapiens, UniProt Q9P0L2); conditions: MARK1(h); 100 μM
Outline: as §1

266 human kinases [6] = target: T1, 266 human kinases (Homo sapiens, UniProt Q9UBE8); conditions: NLK(h); 100 μM
T1 sequence (Q9UBE8 1-527): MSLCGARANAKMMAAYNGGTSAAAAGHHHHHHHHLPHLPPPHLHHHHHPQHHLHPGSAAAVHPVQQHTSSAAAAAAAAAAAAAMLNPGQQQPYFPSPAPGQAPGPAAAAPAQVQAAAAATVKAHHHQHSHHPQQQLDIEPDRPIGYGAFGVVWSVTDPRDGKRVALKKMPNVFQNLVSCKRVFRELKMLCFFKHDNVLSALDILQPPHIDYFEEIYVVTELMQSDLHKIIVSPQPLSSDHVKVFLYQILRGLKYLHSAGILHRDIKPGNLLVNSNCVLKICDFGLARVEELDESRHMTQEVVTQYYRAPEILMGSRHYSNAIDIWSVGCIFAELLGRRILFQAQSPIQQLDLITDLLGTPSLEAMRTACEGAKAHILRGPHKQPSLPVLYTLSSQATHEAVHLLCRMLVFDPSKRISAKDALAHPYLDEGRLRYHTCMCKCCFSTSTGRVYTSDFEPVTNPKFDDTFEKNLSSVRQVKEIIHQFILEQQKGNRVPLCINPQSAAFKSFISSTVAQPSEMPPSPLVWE
Outline: as §1

266 human kinases [7] = target: T2, 266 human kinases (Homo sapiens, UniProt P21709); conditions: EphA1(h); 100 μM
T2 sequence (P21709 26-976): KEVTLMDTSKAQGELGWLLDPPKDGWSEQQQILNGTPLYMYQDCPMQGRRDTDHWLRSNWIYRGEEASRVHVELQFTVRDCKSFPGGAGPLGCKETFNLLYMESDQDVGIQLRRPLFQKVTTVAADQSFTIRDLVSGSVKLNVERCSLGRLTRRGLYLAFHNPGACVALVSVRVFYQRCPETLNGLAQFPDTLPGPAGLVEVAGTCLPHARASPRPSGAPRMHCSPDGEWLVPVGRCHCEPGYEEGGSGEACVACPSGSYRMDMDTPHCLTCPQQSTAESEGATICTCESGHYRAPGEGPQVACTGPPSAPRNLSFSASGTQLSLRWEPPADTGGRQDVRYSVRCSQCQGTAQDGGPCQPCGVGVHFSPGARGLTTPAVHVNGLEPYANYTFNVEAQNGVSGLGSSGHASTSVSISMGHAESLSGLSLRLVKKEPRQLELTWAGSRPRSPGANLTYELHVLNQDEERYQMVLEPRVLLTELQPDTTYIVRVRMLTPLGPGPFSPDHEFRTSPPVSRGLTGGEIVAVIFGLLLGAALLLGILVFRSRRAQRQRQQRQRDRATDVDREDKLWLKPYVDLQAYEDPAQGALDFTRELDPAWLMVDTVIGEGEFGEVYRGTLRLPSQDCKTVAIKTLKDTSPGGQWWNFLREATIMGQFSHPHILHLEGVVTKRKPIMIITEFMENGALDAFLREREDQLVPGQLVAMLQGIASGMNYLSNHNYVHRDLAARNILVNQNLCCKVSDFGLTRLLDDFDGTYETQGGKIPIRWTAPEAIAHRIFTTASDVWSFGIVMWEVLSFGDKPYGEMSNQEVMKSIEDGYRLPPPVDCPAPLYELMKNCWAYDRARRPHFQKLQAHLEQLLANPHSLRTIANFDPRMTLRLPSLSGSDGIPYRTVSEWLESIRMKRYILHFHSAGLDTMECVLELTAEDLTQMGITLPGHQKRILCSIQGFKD
Outline: as §1

266 human kinases [8] = target: 266 human kinases (Homo sapiens, UniProt Q9H4B4); conditions: Plk3(h); 100 μM
Outline: as §1

Sequence of 266 human kinases (Homo sapiens, UniProt Q9H4B4) (Q9H4B4 whole entry): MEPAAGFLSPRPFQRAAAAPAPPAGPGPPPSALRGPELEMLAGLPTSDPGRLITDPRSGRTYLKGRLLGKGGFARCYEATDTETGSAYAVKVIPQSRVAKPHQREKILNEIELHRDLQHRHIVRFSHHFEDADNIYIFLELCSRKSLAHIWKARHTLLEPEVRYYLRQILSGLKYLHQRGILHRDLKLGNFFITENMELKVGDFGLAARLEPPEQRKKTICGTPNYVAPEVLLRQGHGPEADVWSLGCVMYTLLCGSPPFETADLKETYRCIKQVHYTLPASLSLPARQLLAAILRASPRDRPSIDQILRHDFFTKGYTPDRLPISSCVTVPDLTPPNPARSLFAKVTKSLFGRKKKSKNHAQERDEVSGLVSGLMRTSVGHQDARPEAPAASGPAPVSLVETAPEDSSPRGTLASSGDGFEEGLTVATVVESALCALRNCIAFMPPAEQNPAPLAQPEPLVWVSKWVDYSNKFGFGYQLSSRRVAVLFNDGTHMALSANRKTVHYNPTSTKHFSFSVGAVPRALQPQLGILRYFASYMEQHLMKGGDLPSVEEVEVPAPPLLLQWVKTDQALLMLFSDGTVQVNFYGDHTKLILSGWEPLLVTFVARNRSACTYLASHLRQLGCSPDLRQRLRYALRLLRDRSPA
Sequence of 266 human kinases (Homo sapiens, UniProt Q9P0L2) (Q9P0L2 whole entry): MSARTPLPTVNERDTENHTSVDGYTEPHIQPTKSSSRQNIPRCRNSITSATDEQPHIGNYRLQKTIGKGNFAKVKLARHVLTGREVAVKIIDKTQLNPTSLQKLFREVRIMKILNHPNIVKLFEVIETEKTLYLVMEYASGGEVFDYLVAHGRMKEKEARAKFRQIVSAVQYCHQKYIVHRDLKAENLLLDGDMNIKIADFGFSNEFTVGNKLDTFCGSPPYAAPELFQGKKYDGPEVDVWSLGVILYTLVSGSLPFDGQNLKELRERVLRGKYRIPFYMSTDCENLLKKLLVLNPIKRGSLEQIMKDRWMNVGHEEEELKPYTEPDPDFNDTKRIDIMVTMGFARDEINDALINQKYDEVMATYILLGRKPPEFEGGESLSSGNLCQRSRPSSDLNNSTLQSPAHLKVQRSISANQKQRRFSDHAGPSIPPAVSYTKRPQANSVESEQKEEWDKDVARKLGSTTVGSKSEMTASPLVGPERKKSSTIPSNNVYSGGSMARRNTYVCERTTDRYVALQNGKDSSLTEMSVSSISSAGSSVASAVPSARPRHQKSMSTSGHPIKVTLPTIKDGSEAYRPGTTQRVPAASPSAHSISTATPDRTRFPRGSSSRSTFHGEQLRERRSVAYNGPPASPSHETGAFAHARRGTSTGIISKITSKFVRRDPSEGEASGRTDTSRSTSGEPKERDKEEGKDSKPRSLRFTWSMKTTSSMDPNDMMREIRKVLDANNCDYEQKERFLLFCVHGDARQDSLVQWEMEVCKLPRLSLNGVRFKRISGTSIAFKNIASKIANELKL
Sequence of 266 human kinases (Homo sapiens, UniProt P53667) (P53667 whole entry): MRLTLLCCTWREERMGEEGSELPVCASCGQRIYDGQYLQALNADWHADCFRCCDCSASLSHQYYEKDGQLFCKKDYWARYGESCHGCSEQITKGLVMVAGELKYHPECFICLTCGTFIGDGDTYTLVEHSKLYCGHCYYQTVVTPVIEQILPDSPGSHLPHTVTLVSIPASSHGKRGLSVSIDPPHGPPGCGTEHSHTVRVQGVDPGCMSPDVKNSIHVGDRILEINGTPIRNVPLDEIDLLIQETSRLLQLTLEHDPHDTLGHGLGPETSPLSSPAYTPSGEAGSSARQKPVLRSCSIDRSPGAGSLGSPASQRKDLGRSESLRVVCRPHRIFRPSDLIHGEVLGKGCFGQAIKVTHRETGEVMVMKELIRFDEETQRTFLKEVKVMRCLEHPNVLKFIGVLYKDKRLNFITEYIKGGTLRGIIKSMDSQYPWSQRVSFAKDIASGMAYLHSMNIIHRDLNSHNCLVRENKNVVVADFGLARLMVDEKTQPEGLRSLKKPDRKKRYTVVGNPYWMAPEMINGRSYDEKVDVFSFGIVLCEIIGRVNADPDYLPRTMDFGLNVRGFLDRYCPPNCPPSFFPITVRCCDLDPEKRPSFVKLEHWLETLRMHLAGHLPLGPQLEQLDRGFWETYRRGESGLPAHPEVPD
Sequence of 266 human kinases (Homo sapiens, UniProt P00519) (P00519 whole entry): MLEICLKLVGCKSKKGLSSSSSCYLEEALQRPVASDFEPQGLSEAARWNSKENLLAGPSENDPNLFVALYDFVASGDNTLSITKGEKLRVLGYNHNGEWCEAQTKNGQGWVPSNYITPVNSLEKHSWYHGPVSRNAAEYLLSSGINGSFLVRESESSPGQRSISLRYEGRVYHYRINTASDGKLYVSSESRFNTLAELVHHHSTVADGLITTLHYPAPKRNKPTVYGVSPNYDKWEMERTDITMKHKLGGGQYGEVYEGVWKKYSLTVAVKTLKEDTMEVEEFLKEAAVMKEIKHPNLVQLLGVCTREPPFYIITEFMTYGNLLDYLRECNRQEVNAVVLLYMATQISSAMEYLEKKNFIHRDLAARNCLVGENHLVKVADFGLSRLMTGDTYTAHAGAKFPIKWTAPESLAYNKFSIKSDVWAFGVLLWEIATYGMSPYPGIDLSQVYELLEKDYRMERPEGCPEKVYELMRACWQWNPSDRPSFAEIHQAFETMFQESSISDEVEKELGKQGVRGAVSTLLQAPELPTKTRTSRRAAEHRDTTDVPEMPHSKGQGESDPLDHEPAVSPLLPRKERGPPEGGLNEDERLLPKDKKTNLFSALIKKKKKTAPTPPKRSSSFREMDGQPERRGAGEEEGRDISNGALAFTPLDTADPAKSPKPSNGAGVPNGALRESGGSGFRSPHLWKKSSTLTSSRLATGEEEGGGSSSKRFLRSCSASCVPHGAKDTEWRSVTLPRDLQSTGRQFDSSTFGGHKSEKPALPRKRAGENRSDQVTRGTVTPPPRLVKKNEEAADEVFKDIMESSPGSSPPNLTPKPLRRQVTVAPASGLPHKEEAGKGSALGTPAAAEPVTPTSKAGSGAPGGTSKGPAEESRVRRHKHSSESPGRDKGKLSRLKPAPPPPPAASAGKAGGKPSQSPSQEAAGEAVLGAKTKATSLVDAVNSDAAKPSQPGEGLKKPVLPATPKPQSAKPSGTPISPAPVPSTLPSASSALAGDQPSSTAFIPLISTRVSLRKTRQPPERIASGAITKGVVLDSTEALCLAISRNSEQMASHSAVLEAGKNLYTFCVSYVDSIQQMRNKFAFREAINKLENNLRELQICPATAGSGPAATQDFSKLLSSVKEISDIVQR
Sequence of 266 human kinases (Homo sapiens, UniProt Q86Y07) (Q86Y07 whole entry): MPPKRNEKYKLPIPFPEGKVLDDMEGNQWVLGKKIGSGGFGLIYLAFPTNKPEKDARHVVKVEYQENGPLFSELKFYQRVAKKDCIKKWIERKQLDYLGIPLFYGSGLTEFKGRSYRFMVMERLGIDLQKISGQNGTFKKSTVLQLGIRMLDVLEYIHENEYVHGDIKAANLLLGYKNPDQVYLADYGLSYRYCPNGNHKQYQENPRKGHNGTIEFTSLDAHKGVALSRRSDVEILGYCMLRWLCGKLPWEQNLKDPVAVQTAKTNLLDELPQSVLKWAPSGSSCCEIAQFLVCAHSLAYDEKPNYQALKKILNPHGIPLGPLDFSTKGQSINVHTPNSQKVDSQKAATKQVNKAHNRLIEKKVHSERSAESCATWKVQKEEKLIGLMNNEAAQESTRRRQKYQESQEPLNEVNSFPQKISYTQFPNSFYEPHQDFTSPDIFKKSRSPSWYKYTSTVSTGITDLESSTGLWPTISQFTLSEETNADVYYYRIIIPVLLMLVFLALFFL
Sequence of 266 human kinases (Homo sapiens, UniProt P16234, V561D) (P16234 24-1089 V561D): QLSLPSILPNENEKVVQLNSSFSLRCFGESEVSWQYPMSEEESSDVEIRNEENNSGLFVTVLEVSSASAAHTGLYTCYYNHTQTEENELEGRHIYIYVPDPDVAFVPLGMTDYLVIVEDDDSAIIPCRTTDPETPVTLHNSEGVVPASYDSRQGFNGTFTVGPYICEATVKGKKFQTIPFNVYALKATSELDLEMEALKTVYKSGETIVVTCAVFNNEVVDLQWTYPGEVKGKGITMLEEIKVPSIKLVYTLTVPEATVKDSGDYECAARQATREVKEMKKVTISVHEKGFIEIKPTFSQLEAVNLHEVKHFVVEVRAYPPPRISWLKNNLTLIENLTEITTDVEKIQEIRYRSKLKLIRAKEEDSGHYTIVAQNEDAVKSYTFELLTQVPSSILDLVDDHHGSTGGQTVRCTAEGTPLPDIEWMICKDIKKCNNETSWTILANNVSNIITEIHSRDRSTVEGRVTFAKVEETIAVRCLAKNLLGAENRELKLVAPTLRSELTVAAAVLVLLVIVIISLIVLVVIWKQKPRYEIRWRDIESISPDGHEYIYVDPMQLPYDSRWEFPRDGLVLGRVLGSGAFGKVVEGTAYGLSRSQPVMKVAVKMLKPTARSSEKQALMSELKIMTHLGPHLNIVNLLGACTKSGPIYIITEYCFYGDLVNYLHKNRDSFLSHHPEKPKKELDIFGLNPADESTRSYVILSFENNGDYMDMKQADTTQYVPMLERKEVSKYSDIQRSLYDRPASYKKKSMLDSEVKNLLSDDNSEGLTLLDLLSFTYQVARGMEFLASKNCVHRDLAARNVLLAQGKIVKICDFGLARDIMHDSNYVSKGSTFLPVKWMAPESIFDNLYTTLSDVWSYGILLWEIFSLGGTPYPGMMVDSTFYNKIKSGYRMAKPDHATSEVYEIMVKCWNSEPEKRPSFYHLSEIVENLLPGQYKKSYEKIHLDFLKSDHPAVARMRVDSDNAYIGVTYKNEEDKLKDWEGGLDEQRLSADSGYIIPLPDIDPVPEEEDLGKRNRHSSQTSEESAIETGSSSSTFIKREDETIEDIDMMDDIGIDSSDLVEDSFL

HRRIKAWLKKIKALARQLGVAA (mammal) [MMI-0500]
% activity (266 human kinases [1]): 87% | % activity (266 human kinases [2]): 169% | % activity (266 human kinases [3]): 146% | % activity (266 human kinases [4]): 16% | % activity (266 human kinases [5]): 110% | % activity (266 human kinases [6]): 19% | % activity (266 human kinases [7]): 40% | % activity (266 human kinases [8]): 122%
